Assay results from the supplement of paper PMC6757056.
± gives the standard deviation of the averaged measurements.

B1: library; a variant is named by its letters at N, in order (parent)
chain: GCUGUCACCGAGAAACUGUGAAGUAUAUCUUAAACCUGGGCACUUAAAAGAUAUAUGGAGUUAGUAGUGCAACCUGCUCGGUCUGAUGAGUCCNNNNNNGGACGAAACAGC

Legend:
cyclic di-GMP [1] = variants of: B1; test: normalized RNA/DNA level without ligand (relative to sTRSVctl = 100) (log10 (% of sTRSVctl)); HEK293T; ligand: cyclic di-GMP (c-di-GMP-II aptamer); higher = less ribozyme self-cleavage, higher mRNA level; conditions: reporter: mCherry (pCS4076), ligand present: no
In short: (§1)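 Ribozyme switch library plasmids linked to reporters were introduced into HEK293T cells at 4 µg per 6-well well, with ligand, if any, added 1 h before. Total RNA was extracted with EDTA 72 h later, reverse-transcribed, amplified, barcoded and sequenced. RNA level was computed from RNA over DNA reads relative to a spiked-in non-cleaving sequence or the top sequences, then scaled and log-transformed. The top set was 25 sequences, values were ×100 and log10, and the cutoff was ≥100 DNA reads.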

cyclic di-GMP [2] = variants of: B1; test: normalized RNA/DNA level with ligand (relative to sTRSVctl = 100) (log10 (% of sTRSVctl)); HEK293T; ligand: cyclic di-GMP (c-di-GMP-II aptamer); ligand concentration (+) RNA-Seq: 1 mM; higher = less ribozyme self-cleavage, higher mRNA level; conditions: reporter: mCherry (pCS4076), ligand present: yes
In short: as §1

Variant | normalized RNA/DNA level without ligand (log10) (cyclic di-GMP [1]) | normalized RNA/DNA level with ligand (log10) (cyclic di-GMP [2])
AGGUGU | 1.66 ± 0.041 | 1.77 ± 0.06
AGGUGG | 1.69 ± 0.031 | 1.78 ± 0.12
AGGUGC | 1.75 ± 0.037 | 1.82 ± 0.11
CGGUUG | 1.68 ± 0.14 | 1.812 ± 0.013
CGGUUU | 1.6584 ± 0.0015 | 1.75 ± 0.1
CGGUUC | 1.55 ± 0.028 | 1.75 ± 0.069
UGUCUG | 1.736 ± 0.0044 | 1.88 ± 0.08
UGUCUA | 1.71 ± 0.037 | 1.84 ± 0.15
UGUCUC | 1.79 ± 0.0075 | 1.88 ± 0.087
UGUCUU | 1.73 ± 0.0071 | 1.88 ± 0.1
GGUAAU | 1.61 ± 0.039 | 1.72 ± 0.037
GGUAAG | 1.49 ± 0.12 | 1.65 ± 0.098
GGUAAA | 1.441 ± 0.0091 | 1.62 ± 0.13
GGUAAC | 1.743 ± 0.0073 | 1.85 ± 0.077
AGUAGC | 1.618 ± 0.0046 | 1.8 ± 0.12
UGGUUU | 1.761 ± 0.011 | 1.88 ± 0.12
UGGUUC | 1.7 ± 0.033 | 1.83 ± 0.12
UGGUUG | 1.686 ± 0.011 | 1.83 ± 0.11
UGGUUA | 1.67 ± 0.019 | 1.85 ± 0.042
CGUAGG | 1.71 ± 0.033 | 1.82 ± 0.14
CGUAGC | 1.73 ± 0.062 | 1.83 ± 0.055
CGUAGU | 1.69 ± 0.041 | 1.82 ± 0.13
CGUAGA | 1.44 ± 0.016 | 1.64 ± 0.14
GGGUUC | 1.79 ± 0.072 | 1.89 ± 0.12

Variant | normalized RNA/DNA level without ligand (log10) (cyclic di-GMP [1]) | normalized RNA/DNA level with ligand (log10) (cyclic di-GMP [2])
GGUACG | 1.661 ± 0.0037 | 1.821 ± 0.013
GGUACA | 1.52 ± 0.034 | 1.73 ± 0.051
GGUACU | 1.71 ± 0.067 | 1.82 ± 0.16
GGUACC | 1.82 ± 0.038 | 1.93 ± 0.12
GGUCAA | 1.4 ± 0.095 | 1.64 ± 0.092
GGUCAC | 1.754 ± 0.014 | 1.87 ± 0.091
GGUCAU | 1.56 ± 0.055 | 1.83 ± 0.081
CGUCUG | 1.727 ± 0.015 | 1.83 ± 0.064
AGUAUA | 1.47 ± 0.015 | 1.69 ± 0.11
AGUAUC | 1.68 ± 0.022 | 1.81 ± 0.13
AGUAUG | 1.54 ± 0.085 | 1.75 ± 0.087
AGUAUU | 1.68 ± 0.037 | 1.83 ± 0.1
UGUACA | 1.778 ± 0.0071 | 1.88 ± 0.095
UGUACG | 1.792 ± 0.0062 | 1.87 ± 0.032
GGUAGA | 1.34 ± 0.04 | 1.55 ± 0.1
GGUAGC | 1.671 ± 0.014 | 1.8 ± 0.12
UGGUGU | 1.6 ± 0.11 | 1.81 ± 0.063
UGGUGG | 1.68 ± 0.017 | 1.81 ± 0.12
UGUCAU | 1.68 ± 0.049 | 1.81 ± 0.1
UGUCAA | 1.69 ± 0.048 | 1.82 ± 0.096
UGUCAC | 1.75 ± 0.04 | 1.87 ± 0.15
UGUCAG | 1.67 ± 0.042 | 1.82 ± 0.1
UGUAAG | 1.73 ± 0.022 | 1.84 ± 0.089
UGUAAC | 1.718 ± 0.0028 | 1.84 ± 0.12

Variant | normalized RNA/DNA level without ligand (log10) (cyclic di-GMP [1]) | normalized RNA/DNA level with ligand (log10) (cyclic di-GMP [2])
UGUAAU | 1.679 ± 0.01 | 1.84 ± 0.14
CGGUGG | 1.66 ± 0.066 | 1.79 ± 0.1
UGUCCA | 1.8 ± 0.013 | 1.87 ± 0.068
UGUCCG | 1.856 ± 0.0053 | 1.95 ± 0.042
UGUCCC | 1.81 ± 0.072 | 1.88 ± 0.17
AGUCUC | 1.764 ± 0.0076 | 1.88 ± 0.085
AGUCUG | 1.629 ± 0.012 | 1.76 ± 0.056
AGUCUA | 1.55 ± 0.016 | 1.77 ± 0.12
AGUCUU | 1.726 ± 0.0047 | 1.84 ± 0.11
UGUAGA | 1.67 ± 0.045 | 1.82 ± 0.12
UGUAGG | 1.72 ± 0.035 | 1.85 ± 0.072
UGUAGC | 1.73 ± 0.043 | 1.83 ± 0.15
UGUAUC | 1.734 ± 0.0024 | 1.87 ± 0.11
UGUAUU | 1.73 ± 0.016 | 1.9 ± 0.091
UGUAUG | 1.75 ± 0.045 | 1.9 ± 0.13
AGUCAA | 1.48 ± 0.039 | 1.69 ± 0.1
AGUCAG | 1.571 ± 0.011 | 1.73 ± 0.16
AGUCAC | 1.67 ± 0.062 | 1.81 ± 0.049
AGUCAU | 1.69 ± 0.071 | 1.85 ± 0.13
AGUCCA | 1.663 ± 0.0054 | 1.78 ± 0.049
AGUCCU | 1.77 ± 0.023 | 1.87 ± 0.086
AGUCCC | 1.77 ± 0.042 | 1.87 ± 0.069
GGUCUC | 1.73 ± 0.075 | 1.87 ± 0.12
GGUCUU | 1.64 ± 0.039 | 1.79 ± 0.13

Variant | normalized RNA/DNA level without ligand (log10) (cyclic di-GMP [1]) | normalized RNA/DNA level with ligand (log10) (cyclic di-GMP [2])
GGUCUA | 1.52 ± 0.046 | 1.72 ± 0.039
CGUCCC | 1.75 ± 0.029 | 1.9 ± 0.086
CGUCCA | 1.53 ± 0.11 | 1.72 ± 0.1
CGUCCG | 1.82 ± 0.035 | 1.89 ± 0.069
GGUCCA | 1.777 ± 0.015 | 1.95 ± 0.022
GGUCCC | 1.83 ± 0.045 | 1.92 ± 0.11
GGUCCG | 1.9 ± 0.057 | 1.96 ± 0.13
GGUCGC | 1.74 ± 0.034 | 1.87 ± 0.15
GGUCGU | 1.66 ± 0.056 | 1.83 ± 0.036
AGGUUG | 1.7 ± 0.022 | 1.77 ± 0.1
AGGUUA | 1.54 ± 0.037 | 1.64 ± 0.18
AGGUUU | 1.7 ± 0.04 | 1.85 ± 0.11
AGGUUC | 1.75 ± 0.026 | 1.86 ± 0.14
GGUGAC | 1.75 ± 0.0083 | 1.86 ± 0.14
GGUGAA | 1.34 ± 0.076 | 1.61 ± 0.07
GGUAUU | 1.61 ± 0.056 | 1.8 ± 0.11
GGUAUA | 1.5 ± 0.066 | 1.72 ± 0.025
GGUAUG | 1.59 ± 0.093 | 1.74 ± 0.04
CGUAUG | 1.73 ± 0.019 | 1.86 ± 0.13
CGUAUU | 1.33 ± 0.083 | 1.57 ± 0.11
CGUAUC | 1.58 ± 0.045 | 1.76 ± 0.098
AGUACG | 1.58 ± 0.046 | 1.74 ± 0.065
AGUACU | 1.7515 ± 2.5e-05 | 1.85 ± 0.089
AGUACA | 1.51 ± 0.038 | 1.67 ± 0.059

Variant | normalized RNA/DNA level without ligand (log10) (cyclic di-GMP [1]) | normalized RNA/DNA level with ligand (log10) (cyclic di-GMP [2])
AGUACC | 1.66 ± 0.018 | 1.86 ± 0.15
CGUCAU | 1.46 ± 0.042 | 1.64 ± 0.13
CGUCAC | 1.63 ± 0.065 | 1.78 ± 0.062
CGUCAG | 1.79 ± 0.056 | 1.92 ± 0.11
CGUCGU | 1.78 ± 0.061 | 1.9 ± 0.13
CGUCGC | 1.76 ± 0.024 | 1.87 ± 0.16
CGUCGG | 1.7 ± 0.039 | 1.81 ± 0.13
UGUGAA | 1.658 ± 0.012 | 1.85 ± 0.078
AGUCGG | 1.8 ± 0.051 | 1.87 ± 0.082
AGUCGA | 1.71 ± 0.036 | 1.84 ± 0.081
AGUCGC | 1.731 ± 0.0037 | 1.85 ± 0.12
AGUCGU | 1.6615 ± 0.0012 | 1.79 ± 0.08
UGUCGU | 1.648 ± 0.0058 | 1.84 ± 0.12
UGUCGG | 1.74 ± 0.027 | 1.86 ± 0.077
UGUCGC | 1.76 ± 0.049 | 1.85 ± 0.15
UGUCGA | 1.76 ± 0.033 | 1.81 ± 0.14
CGUACC | 1.74 ± 0.039 | 1.89 ± 0.09
CGUACG | 1.777 ± 0.013 | 1.857 ± 0.017
CGUAAC | 1.557 ± 0.0076 | 1.72 ± 0.091
CGUAAG | 1.77 ± 0.056 | 1.86 ± 0.12
